Reference: PMC4273445 (eLife, 2014)

Assays:
Experiment in all cases: SPR
[1] = molecular target: fHbp V2.21 Glu (at V1 Asp262) to Ala (N. meningitidis)
[2] = molecular target: fHbp V2.21 Glu (at V1 His313) to Ala (N. meningitidis)
[3] = molecular target: fHbp V2.21 Leu (at V1 Ile199) to Ala (N. meningitidis)
[4] = molecular target: fHbp V2.21 Val (at V1 Leu171) to Ala (N. meningitidis)
[5] = molecular target: fHbp V3.28 Leu (at V1 Arg195) to Ala (N. meningitidis)
[6] = molecular target: factor H binding protein (fHbp) V1.1 (N. meningitidis) (UniProt Q9JXV4)

“CFHR3_(12), the first two (N-terminal) CCP domains of complement factor H-related 3 (from UniProt Q02985 19-330) (domain or fragment)” gave a Kd [1] of 5.43 nM, a Kd [2] of 0.723 nM and a Kd [3] of 11.2 nM. For the same substance, the Kd [4] was 9.81 nM, the Kd [5] was 1.76 nM and the Kd [6] was 59.4 nM.
